Consider one molecule from patent CN116819103A.

The experiment has as its target 大熊猫TSHβ亚基特异序列多肽片段TSHβ-2 (大熊猫 (giant panda)). The experiment in a line: indirect ELISA, peptide TSHβ-2 coated at 2 μg/mL, HRP goat anti-mouse, OD450.

大熊猫TSHβ亚基特异序列多肽片段TSHβ-2 (大熊猫 (giant panda)), sequence (peptide, as listed by the source): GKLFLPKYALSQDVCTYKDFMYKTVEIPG

B1: 大熊猫TSHβ单克隆抗体 (杂交瘤细胞株TSHB-B, CCTCC NO: C202283) (antibody, IgG1, V domains shown)
VH: EVKLVESGGGLVKPGGSLKLSCAASGFSFSRYAMSWVRHAPENRLEWVAAISRGGNLYYRDSVKGRFTISRDDARNILYLQMSSLRSEDTAMYYCTRDDYDEDWYFDVWGAGTTVTVSS
VL: DVLMTQTPLSLPVSLGEQASISCRSSQIIVHSNGNTYLEWYLQKPGQSPKLLIYKVSNRFSGVPDRFSGSGSGTDFTLKISRVEAEDLGVYYCFHGSHIPPTFGGGTKLEIK
B1 displayed a 效价 (ELISA titer) (fold dilution) above 1e+06.
